US20230193409A1

B1: Leptotrichia buccalis Cas13a (protein)
chain: MKVTKVGGISHKKYTSEGRLVKSESEENRTDERLSALLNMRLDMYIKNPSSTETKENQKRIGKLKKFFSNKMVYLKDNTLSLKNGKKENIDREYSETDILESDVRDKKNFAVLKKIYLNENVNSEELEVFRNDIKKKLNKINSLKYSFEKNKANYQKINENNIEKVEGKSKRNIIYDYYRESAKRDAYVSNVKEAFDKLYKEEDIAKLVLEIENLTKLEKYKIREFYHEIIGRKNDKENFAKIIYEEIQNVNNMKELIEKVPDMSELKKSQVFYKYYLDKEELNDKNIKYAFCHFVEIEMSQLLKNYVYKRLSNISNDKIKRIFEYQNLKKLIENKLLNKLDTYVRNCGKYNYYLQDGEIATSDFIARNRQNEAFLRNIIGVSSVAYFSLRNILETENENDITGRMRGKTVKNNKGEEKYVSGEVDKIYNENKKNEVKENLKMFYSYDFNMDNKNEIEDFFANIDEAISSIRHGIVHFNLELEGKDIFAFKNIAPSEISKKMFQNEINEKKLKLKIFRQLNSANVFRYLEKYKILNYLKRTRFEFVNKNIPFVPSFTKLYSRIDDLKNSLGIYWKTPKTNDDNKTKEIIDAQIYLLKNIYYGEFLNYFMSNNGNFFEISKEIIELNKNDKRNLKTGFYKLQKFEDIQEKIPKEYLANIQSLYMINAGNQDEEEKDTYIDFIQKIFLKGFMTYLANNGRLSLIYIGSDEETNTSLAEKKQEFDKFLKKYEQNNNIKIPYEINEFLREIKLGNILKYTERLNMFYLILKLLNHKELTNLKGSLEKYQSANKEEAFSDQLELINLLNLDNNRVTEDFELEADEIGKFLDFNGNKVKDNKELKKFDTNKIYFDGENIIKHRAFYNIKKYGMLNLLEKIADKAGYKISIEELKKYSNKKNEIEKNHKMQENLHRKYARPRKDEKFTDEDYESYKQAIENIEEYTHLKNKVEFNELNLLQGLLLRILHRLVGYTSIWERDLRFRLKGEFPENQYIEEIFNFENKKNVKYKGGQIVEKYIKFYKELHQNDEVKINKYSSANIKVLKQEKKDLYIRNYIAHFNYIPHAEISLLEVLENLRKLLSYDRKLKNAVMKSVVDILKEYGFVATFKIGADKKIGIQTLESEKIVHLKNLKKKKLMTDRNSEELCKLVKIMFEYKMEEKKSEN

What was measured:
AcrVIA1-3xFLAG [1] = test system: T1, AcrVIA1-3xFLAG
T1 sequence: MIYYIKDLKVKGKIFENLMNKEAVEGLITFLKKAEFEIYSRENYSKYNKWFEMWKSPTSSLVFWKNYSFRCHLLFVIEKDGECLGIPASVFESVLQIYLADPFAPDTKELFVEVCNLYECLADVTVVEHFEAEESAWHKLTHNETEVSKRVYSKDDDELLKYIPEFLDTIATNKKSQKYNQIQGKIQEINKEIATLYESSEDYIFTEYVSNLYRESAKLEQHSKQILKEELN

AcrVIA1 [2] = test system: T2, AcrVIA1
T2 sequence: T1 sequence

AcrVIA1 [3] = molecular target: T3, AcrVIA1
T3 chain: T1 sequence

AcrVIA1-3xFLAG [4] = molecular target: T4, AcrVIA1-3xFLAG
T4 chain: T1 sequence

Molecule	cis- and trans-RNA cleavage in vitro (FIG. 2A-B) (AcrVIA1-3xFLAG [1])	cis-RNase activity: cleavage of radiolabeled target RNA in vitro (AcrVIA1 [2])	nonspecific cleavage of labeled non-target RNA, AcrVIA1 added before target RNA ("Acr first" lane) (AcrVIA1 [2])	trans-cleavage of a labeled non-target RNA upon addition of unlabeled protospacer RNA in vitro (AcrVIA1 [2])	cis-RNA cleavage of spc2-target RNA by L. buccalis Cas13a (10 nM) with AcrVIA1 at 400, 100, 10 or 1 nM (AcrVIA1 [3])	cis-RNA cleavage of spc2-target RNA by L. buccalis Cas13a (10 nM) with AcrVIA1-3xFLAG at 400, 100, 10 or 1 nM (AcrVIA1-3xFLAG [4])
L. seeligeri Cas13a-His6	confirmed that both are active in vivo ... and in vitro (FIG. 2A-B)	In the presence of excess AcrVIA1, however, target RNA cleavage was inhibited	if the AcrVIA1 inhibitor is added to the reaction containing Cas13 before adding the target RNA, then AcrVIA1 prevents target RNA binding and no Cas13 activity is observed	AcrVIA1 inhibited Cas13a-mediated trans-cleavage of a labeled non-target RNA		
B1					Addition of AcrVIA1 had no effect on protospacer RNA cleavage by purified L. buccalis Cas13a^crRNA	AcrVIA1 does not inhibit Leptotrichia buccalis Cas13a
